Experimental data from patent US9315793B2, “Enzymes that synthesize zingiberene” (Board of Trustees of Michigan State University, priority 2011, dated 2016).

Assay: Substrate specificity of recombinant LA2167-ZIS (GPP, NPP, EE-FPP or 2Z,6Z-FPP), GC-MS of products
Format: biochemical, Solanum habrochaites
Details: for substrate giving zingiberene (substrate specificity): no substrate, GPP, NPP, 2Z,6Z-FPP and E,E-FPP compared
Description: The synthetic gene was excised from the pUC57 cloning vector by digestion with BamHI and SalI and ligated into the pHIS8 vector previously linearized by digestion with the same enzymes. Recombinant clones were transformed into E. coli BL21 cells. A 5-mL log-phase culture of E. coli BL21 cells containing the expression vector was induced by addition of IPTG to a final concentration of 0.1 mM. The induced cells were incubated with agitation at 25° C. for 16 h, and then harvested by centrifugation at 10,000 g for 15 min. The cell pellet was resuspended in 1 mL extraction buffer (50 mM HEPES pH 8, 5% glycerol, 100 mM KCl, 7.5 mM MgCl2 containing 1 mM dithiothreitol (DTT)) prior to sonication. Soluble proteins were harvested after centrifugation at 10,000 g for 20 min. The supernatant was used for subsequent enzyme assays. Two micrograms of soluble protein were mixed with 10 μM of substrate (GPP, NPP, EE-FPP or 2Z,6Z-FPP (Echelon Biosciences Inc., Salt Lake City, Utah)) in a 2-mL glass vial. Reactions were allowed to proceed for 30 min at 30° C., and the glass vial headspace was collected with a 65 μm polydimethylsiloxane-divinylbenzene solid-phase microextraction fiber (Supelco, Bellefonte, Pa.). After 5 min of exposure at 42° C., the SPME fiber was retracted and transferred to the GC injector port for desorption at 200° C. onto the GC column for 3 min. The terpenes were separated on a DB5 column (10 m length, inner diameter and 0.25 um). The GC-MS analysis was performed as described previously […] et al. (Plant Physiol 153, 1212-1223 (2010)).

B1: LA2167-ZIS: sesquiterpene (zingiberene) synthase of Solanum habrochaites accession LA2167, SEQ ID NO:2; codon-optimized form lacking chloroplast transit sequence SEQ ID NO:4 (protein)
chain: MIVGYRSTIITLSHPKLGNGKTISSNAIFRRSCRVRCSHSTPSSMNGFEDARDRIRESFGKVELSPSSYDTAWVAMVPSKHSLNEPCFPQCLDWIIENQREDGSWGLNPSHPLLLKDSLSSTLACLLALTKWRVGDEQIKRGLGFIETQSWAIDNKDQISPLGFEIIFPSMIKSAEKLNLNLAINKRDSTIKRALQNEFTRNIEYMSEGFGELCDWKEIIKLHQRQNGSLFDSPATTAAALIYHQHDKKCYEYLNSILQQHKNWVPTMYPTKIHSLLCLVDTLQNLGVHRHFKSEIKKALDEIYRLWQQKNEEIFSNVTHCAMAFRLLRISYYDVSSDELAEFVDEEHFFATSGKYTSHVEILELHKASQLAIDHEKDDILDKINNWTRTFMEQKLLNNGFIDRMSKKEVELALRNFYIISDLAENRRYIKSYEENNFKILKAAYRSPNINNKDLFIFSIRDFELCQAQHQEELQQLKRWFEDCRLDQLGLSEQFISASYLCAIPIVPGPELSDARLVYAKYVMLLTIVDDHFESFASTDECLNIIELVERWDDYASVGYKSERVKVLFSMFYKSIEEIATIAEIKQGRSVKNHLINLWLKVMKLMLMERVEWCSGKTIPRIEEYLYVSSITFGSRLIPLTTQYFIGIKISKDLLESDEIYGLCNFTGIVLRLLNDLQDSKREQKEGSINLVTLLMKSISEEEAIMKMKEILEMKRRELFKMVLVQKKGSQLPQLCKEIFWRTCKWAHFTYSQTDRYRFPEEMENHIDEVFYKPLNH
modifications: Solanum habrochaites
In the case of B1, the “product synthesis with geranyl diphosphate (GPP) as substrate” value (GPP supplied as substrate) is reported as “failed to synthesize any products”, the “product synthesis with neryl diphosphate (NPP) as substrate” value (NPP supplied as substrate) is reported as “failed to synthesize any products” and the “substrate giving zingiberene (substrate specificity)” value is reported as “only observed when 2Z,6Z-farnesyl diphosphate is used as substrate”. For the same molecule, the “substrate giving zingiberene (substrate specificity)” value (listed as zingiberene synthase from accession LA2167) was “only uses 2Z,6Z-farnesyl diphosphate”.
